For the test, the target named is E. coli RNA polymerase holoenzyme Eσ^70 (His10-PPX-RNAP with σ^70) (E. coli) (UniProt P0A7Z4). Put plainly: native MS.

In turn, “KorA (wild type), C-terminally His-tagged (from UniProt P03052) (natural protein)” displayed a stoichiometry N of 2.

Values taken from paper doi:10.1101/2024.02.16.579611.
